According to patent publication US20250277057A1 (OKLAHOMA MEDICAL RESEARCH FOUNDATION, published 2025):
Where a chain is given by its changes, count along the chain named. Names may count otherwise.

B1: HAPC-14-R1-1H1-F2 (Fab, V domains shown)
VH: EVQLVESGGGLVQPGGSLRLSCAASGFTFSFYYLNWVRQAPGKGLEWVGDIRLKSNNYEKHYAESVKGRFTISRDDSKSITYLQMNSLRAEDTAVYYCAREGDYFDYWGQGTTVTVSS
VL: DIQLTQSPSSLSASVGDRVTITCRASESVDSFGATFMHWYQQKPGKAPKLLIYLASNLESGVPSRFSGSGSGTDFTLTISSLQPEDFATYYCQQNNEDPYTFGQGTKLEIK
notes: Single-site mutant Fab of HAPC-14 in periplasmic extract
B2: R2-29D9 (Fab, V domains shown)
VH: B1 VH with S55K, Y104T
VL: B1 VL with N57R, E59P, Q93V
notes: Combinatorial mutant Fab of HAPC-14; also called combinatorial mutant No. 7
B3: HAPC-14-R1-2L4-A1 (Fab, V domains shown)
VH: B1 VH with F31N
VL: B1 VL with N57L
notes: Single-site mutant Fab of HAPC-14; inferred from the clone name (2L4, same site as N57R/W)
B4: R2-24D4 (Fab, V domains shown)
VH: B1 VH with S55K, Y104T
VL: B1 VL with N57W, E59P
notes: Combinatorial mutant Fab of HAPC-14; also called combinatorial mutant No. 10
B5: HAPC-14-R1-3H4-C5 (Fab, V domains shown)
VH: B1 VH with F31N, Y104S
VL: B1 VL
notes: Single-site mutant Fab of HAPC-14; inferred from the clone name (3H4 = VH CDR3, 4th residue, same site as Y104T)
B6: HAPC-14-R1-2L4-B2 (Fab, V domains shown)
VH: B1 VH with F31N
VL: B1 VL with N57W
notes: Single-site mutant Fab of HAPC-14
B7: HAPC-14-R1-2L6-F2 (Fab, V domains shown)
VH: B1 VH with F31N
VL: B1 VL with E59K
notes: Single-site mutant Fab of HAPC-14; inferred from the clone name (2L6, same site as E59G/P)
B8: R2-9C1 (Fab, V domains shown)
VH: B1 VH with S55K
VL: B1 VL with N57W, Q93V
notes: Combinatorial mutant Fab of HAPC-14; also called combinatorial mutant No. 16
B9: HAPC-14-R1-3L1-D11 (Fab, V domains shown)
VH: B1 VH with F31N
VL: B1 VL with Q93W
notes: Single-site mutant Fab of HAPC-14; inferred from the clone name (3L1, same site as Q93V)
B10: R2-32E6 (Fab, V domains shown)
VH: B1 VH with S55K
VL: B1 VL with N57W, E59G, Q93V
notes: Combinatorial mutant Fab of HAPC-14; Printed CDRs are the same as those of R2-24F3; also called combinatorial mutant No. 14
B11: R2-30F7 (Fab, V domains shown)
VH: B1 VH
VL: B1 VL with N57R, E59P, Q93V
notes: Combinatorial mutant Fab of HAPC-14; also called combinatorial mutant No. 11
B12: R2-22B6 (Fab, V domains shown)
VH: B1 VH
VL: B1 VL with N57R, E59G
notes: Combinatorial mutant Fab of HAPC-14; also called combinatorial mutant No. 15
B13: HAPC-14-R1-3H7-F2 (Fab, V domains shown)
VH: B1 VH with F31N, Y107P
VL: B1 VL
notes: Single-site mutant Fab of HAPC-14; inferred from the clone name (3H7 = VH CDR3, 7th residue)
B14: HAPC-14-R1-2L4-D4 (Fab, V domains shown)
VH: B1 VH with F31N
VL: B1 VL with N57R
notes: as for B6
B15: HAPC-14-8 (antibody, V domains shown)
VH: B1 VH with S55K, Y104T
VL: B1 VL with N57R, E59G, Q93V
notes: Whole IgG, backbone hIgG1; also called HPAC 14-8
B16: R2-23E10 (Fab, V domains shown)
VH: B1 VH
VL: B1 VL with N57W, E59G
notes: Combinatorial mutant Fab of HAPC-14; also called combinatorial mutant No. 12
B17: R2-25B7 (Fab, V domains shown)
VH: B1 VH
VL: B1 VL with N57W, E59P, Q93V
notes: Combinatorial mutant Fab of HAPC-14; also called combinatorial mutant No. 5
B18: R2-26E4 (Fab, V domains shown)
VH: B1 VH with S55K
VL: B1 VL with N57R, E59G, Q93V
notes: Combinatorial mutant Fab of HAPC-14; also called combinatorial mutant No. 4
B19: R2-22A10 (Fab, V domains shown)
VH: B1 VH with S55K
VL: B1 VL with N57R, Q93V
notes: Combinatorial mutant Fab of HAPC-14; also called combinatorial mutant No. 9
B20: R2-25G5 (Fab, V domains shown)
VH: B1 VH with S55K
VL: B1 VL with N57W, E59P, Q93V
notes: Combinatorial mutant Fab of HAPC-14; also called combinatorial mutant No. 3
B21: HAPC-14-R1-1L7-B9 (Fab, V domains shown)
VH: B1 VH with F31N
VL: B1 VL with D30A
notes: Single-site mutant Fab of HAPC-14; inferred from the clone name (1L7 = VL CDR1, 7th residue, the only D of that CDR)
B22: HAPC-14-R1-3H4-C6 (Fab, V domains shown)
VH: B1 VH with F31N, Y104T
VL: B1 VL
notes: as for B6
B23: HAPC-14-R1-3L1-G8 (Fab, V domains shown)
VH: B1 VH with F31N
VL: B1 VL with Q93V
notes: as for B6
B24: R2-27G7 (Fab, V domains shown)
VH: B1 VH with S55K
VL: B1 VL with N57R, E59G
notes: Combinatorial mutant Fab of HAPC-14; also called combinatorial mutant No. 6
B25: R2-24H1 (Fab, V domains shown)
VH: B1 VH
VL: B1 VL with N57R, E59G, Q93V
notes: Combinatorial mutant Fab of HAPC-14; also called combinatorial mutant No. 8
B26: R2-23H2 (Fab, V domains shown)
VH: B1 VH with S55K
VL: B1 VL with N57W, E59G
notes: Combinatorial mutant Fab of HAPC-14; also called combinatorial mutant No. 2
B27: HAPC-14-R1-2L4-G9 (Fab, V domains shown)
VH: B1 VH with F31N
VL: B1 VL with N57K
notes: as for B3
B28: R2-24F3 (Fab, V domains shown)
VH: B1 VH with S55K
VL: B1 VL with N57W, E59G, Q93V
notes: Combinatorial mutant Fab of HAPC-14; Printed CDRs are the same as those of R2-32E6; also called combinatorial mutant No. 1
B29: HAPC-14-R1-2H6-C2 (Fab, V domains shown)
VH: B1 VH with F31N, S55K
VL: B1 VL
notes: as for B6
B30: HAPC-14-R1-2L6-G1 (Fab, V domains shown)
VH: B1 VH with F31N
VL: B1 VL with E59G
notes: as for B6

Assays:
[1] = target: T1, human activated protein C (human, UniProt P04070 43-197; P04070 212-461); assay: direct antigen coating ELISA (KD ELISA) of Fab periplasmic extract, anti-c-myc HRP
T1 construct: In the plasma assays aPC is generated in human plasma with Protac; also called aPC; haPC
Procedure: Each well of 96-well plates was coated with an anti-Fab antibody in a coating buffer PBS with pH 7.4 at 4° C. The next day, the plates were blocked with casein in PBS with pH 7.4 at 25° C. for 1 hour. Then, Fab PE was added to the plates, and incubated at 25° C. for 1 hour. After the plates were washed, biotinylated antigen was added to the wells and incubated at 25° C. for 1 hour. Then, the biotinylated antigen was incubated with an SA-horseradish peroxidase (HRP) conjugate at 25° C. for 1 hour. HRP activity was detected with a tetramethylbenzidine (TMB) substrate, and the reaction was quenched with 2M HCl. The plates were read at 450 nm. […] The binding-improved mutants with unique sequences of HAPC-14 were ranked by direct antigen coating ELISA.
Each well of 96-well plates was coated with hPro1. biotin in 1×PBS buffer with pH 7.4, and incubation was carried out overnight at 4° C. The next day, the plates were blocked with casein in 1×PBS buffer with pH 7.4 at 25° C. for 1 hour. Fab PE of each mutant diluted according to one concentration was added to the plates and incubated at 25° C. for 1 hour. Then the Fab PE was incubated with goat anti-c-myc HRP conjugated at 25° C. for 1 hour. HRP activity was detected with a tetramethylbenzidine (TMB) substrate, and the reaction was quenched with 2M HCl. OD values of each plate were read at 450 nm.

[2] = target: T1, human activated protein C; assay: KD ELISA ranking, direct antigen coating ELISA of Fab
[3] = target: T1, human activated protein C; assay: ELISA, plate coated with haPC 1 ug/mL, anti-hIgG-Fc-HRP
Procedure: (§1) The binding abilities of the anti-aPC monoclonal antibodies to haPC/hPC were assayed by Elisa. […] 1. ELISA plates were coated with haPC/hPC (1 ug/mL in PBS), 100 μL/well, at 4° C. overnight. […] 2. The plates were washed 3 times with PBST (0.1% Tween 20), 200 μL/well. […] 3. The plates were blocked with 2% BSA (PBS solution), 200 μL/well, at room temperature for 1 hour. […] 4. The plates were washed 3 times with PBST (0.1% Tween 20), 200 μL/well. […] 5. The plates were incubated with anti-aPC monoclonal antibody as primary antibody (diluted from 10 μg/mL in 2% BSA), 100 μL/well, at room temperature for 1 hour. […] 6. The plates were washed 3 times with PBST (0.1% Tween 20), 200 μL/well. [0200] 7. The plates were incubated with anti-hIgG-Fc antibody-HRP (diluted 5000-fold in 2% BSA buffer) at room temperature for 1 hour. [0201] 8. The plates were washed 6 times with PBST (0.1% Tween 20), 200 μL/well. [0202] 9. The plates were incubated with a TMB substrate (prepared from solutions A and B at 1:1 (v/v)), 100 μL/well, away from light for 10 minutes. […] 10. The reaction was quenched with HCl (1 M), 100 μL/well, and OD450 was read.

human protein C = target: T2, human protein C (human, UniProt P04070 43-461); assay: ELISA, plate coated with hPC 1 ug/mL, anti-hIgG-Fc-HRP
T2 construct: Zymogen form, coated on ELISA plates; also called hPC; PC
Procedure: as §1

[4] = target: T1, human activated protein C; assay: cell-based or functional assay
[5] = target: T1, human activated protein C; assay: Octet BLI, antibody on Protein A sensor, huAPC 3.13-50 nM, 1:1 model, 25 C, pH 7.4
Procedure: Assay method: Octet analysis was carried out at 25° C. using a Protein A Octet biosensor in 1× Kinetics buffer. During the kinetics assay, the baseline step assay was run in 1× Kinetics buffer for 120 seconds, and then run for 240 seconds after the antibody was loaded to the biosensor. Next, the baseline 2 step assay was run in 1× Kinetics buffer for 120 seconds. […] The 1× Kinetics buffer was used as a blank control to show the natural dissociation of the antibody in the buffer. 10 mM glycine at pH 1.5 was used for the regeneration step. Octet data analysis software was used to calculate binding kinetics, and a 1:1 binding model was used for curve fitting.
The affinities of the mutant antibodies were assayed at pH 7.4.

Binder	Bmax [1]	Bmax [2]	further results
B1	0.278	–	–
B2	–	0.96	–
B3	0.244	–	–
B4	–	0.717	–
B5	0.328	–	–
B6	0.662	–	–
B7	0.299	–	–
B8	–	1.09	–
B9	0.261	–	–
B10	–	1.41	–
B11	–	0.617	–
B12	–	1.21	–
B13	0.193	–	–
B14	0.567	–	–
B15	–	–	EC50 [3]: 0.138 nM; Span [3]: 1.05; Span (human protein C): -0.00465; Mean clotting time (s), FIX-deficient plasma, APC-antibody concentration 0.05 ug/ml [4]: 732 s; Mean clotting time (s), FIX-deficient plasma, APC-antibody concentration 0.1 ug/ml [4]: 392 s; Mean clotting time (s), FIX-deficient plasma, APC-antibody concentration 0.5 ug/ml [4]: 276 s; Mean clotting time (s), FVIII-deficient plasma, APC-antibody concentration 0.05 ug/ml [4]: 316 s; Mean clotting time (s), FVIII-deficient plasma, APC-antibody concentration 0.1 ug/ml [4]: 252 s; Mean clotting time (s), FVIII-deficient plasma, APC-antibody concentration 0.5 ug/ml [4]: 190 s; Kd [5]: 10.5 nM; koff [5]: 0.00262 s⁻¹; kon [5]: 250000 M⁻¹ s⁻¹
B16	–	1.24	–
B17	–	1.07	–
B18	–	1.21	–
B19	–	1.01	–
B20	–	1.04	–
B21	0.151	–	–
B22	0.325	–	–
B23	0.24	–	–
B24	–	0.715	–
B25	–	1.25	–
B26	–	1.26	–
B27	0.287	–	–
B28	–	1.37	–
B29	0.262	–	–
B30	0.492	–	–
